Paper PMC3653948, “PDZ Domain-Mediated Interactions of G Protein-Coupled Receptors with Postsynaptic Density Protein 95: Quantitative Characterization of Interactions” (PLoS ONE, 2013)

Key:
PSD-95 PDZ3 (aa 309–401) [1] = target: PSD-95 PDZ3 (aa 309–401) (UniProt P78352); assay: fluorescence polarisation; competition: 25 nM Cy5-labeled probe and a constant concentration of PDZ protein corresponding to the K d of the probe, twofold dilution series of unlabeled peptide (typically 1–512 µM); 10 mM HEPES pH 7.4, 150 mM NaCl, 1% BSA; room temperature; K i calculated from the IC50
PSD-95 PDZ2 (aa 155–249) [2] = target: PSD-95 PDZ2 (aa 155–249) (UniProt P78352); assay: as above
PSD-95 PDZ1 (aa 61–151) [3] = target: PSD-95 PDZ1 (aa 61–151) (UniProt P78352); assay: as above
PSD-95 PDZ3 (aa 309–401) [4] = target: PSD-95 PDZ3 (aa 309–401) (UniProt P78352); assay: SPR; PDZ domains immobilised by amine coupling on Sensor Chip CM5 (PDZ1, PDZ2) or CM4 (PDZ3); peptides injected 1 min, 1 min dissociation, 30 µl/min; […]; HBS-EP+ (10 mM HEPES pH 7.4, 150 mM NaCl, 3 mM EDTA, 0.05% Surfactant P-20)
PSD-95 PDZ2 (aa 155–249) [5] = target: PSD-95 PDZ2 (aa 155–249) (UniProt P78352); assay: as above
PSD-95 PDZ1 (aa 61–151) [6] = target: PSD-95 PDZ1 (aa 61–151) (UniProt P78352); assay: as above

Substance | Ki (PSD-95 PDZ3 (aa 309–401) [1]) | Ki (PSD-95 PDZ2 (aa 155–249) [2]) | Ki (PSD-95 PDZ1 (aa 61–151) [3]) | koff (PSD-95 PDZ3 (aa 309–401) [4]) | koff (PSD-95 PDZ2 (aa 155–249) [5]) | koff (PSD-95 PDZ1 (aa 61–151) [6])
mouse somatostatin receptor 1 (mSSTR1) C-tail peptide | > 1000 µM | 90 µM | 270 µM |  |  | 
human somatostatin receptor 4 (hSSTR4) C-tail peptide | 600 µM | 450 µM | 750 µM |  |  | 
5-hydroxytryptamine receptor 2C (5-HTR2C) C-tail peptide, human | 370 µM | 26 µM | 100 µM | > 1 s⁻¹ | > 1 s⁻¹ | > 1 s⁻¹
5-hydroxytryptamine receptor 2A (5-HTR2A) C-tail peptide, human | > 1000 µM | 46 µM | 160 µM |  |  | 
mouse somatostatin receptor 4 (mSSTR4) C-tail peptide | > 1000 µM | 420 µM | > 1000 µM |  |  | 
somatostatin receptor 2A (SSTR2A) C-tail peptide, human | > 1000 µM | 230 µM | 620 µM |  |  | 
neuropeptide Y receptor Y2 C-tail peptide, human | > 1000 µM | 230 µM | 270 µM |  |  | 
BAI1 receptor C-tail peptide, human | 790 µM | 29 µM | 63 µM |  |  | 

Continued by falling Ki (PSD-95 PDZ3 (aa 309–401) [1]), values first:

Ki (PSD-95 PDZ3 (aa 309–401) [1]) | Ki (PSD-95 PDZ2 (aa 155–249) [2]) | Ki (PSD-95 PDZ1 (aa 61–151) [3]) | koff (PSD-95 PDZ3 (aa 309–401) [4]) | koff (PSD-95 PDZ2 (aa 155–249) [5]) | koff (PSD-95 PDZ1 (aa 61–151) [6]) | Substance
370 µM | 370 µM | 280 µM |  |  |  | chemokine receptor CXCR2 C-tail peptide, human
360 µM | 120 µM | 430 µM |  |  |  | β1-adrenergic receptor (β1AR) C-tail peptide, human
280 µM | > 1000 µM | 610 µM |  |  |  | somatostatin receptor 3 (SSTR3) C-tail peptide, human
200 µM | 28 µM | 50 µM |  |  |  | human somatostatin receptor 1 (hSSTR1) C-tail peptide
